Consider ten proteins from paper PMC6556580 (The Journal of Biological Chemistry, 2019).

Data set [1] deals with the molecule itself. Put plainly: SEC-MALS; samples at 0.5–20 mg/ml in 20 mM Tris pH 8.0, 150 mM KCl, 2 mM DTT; Superdex 200 Increase 10/300 GL; concentration series and enriched species; self-association: dimer and higher oligomers of dimers. On the technique in general: Size exclusion chromatography separates by hydrodynamic size, large species first.
Data set [2] concerns the molecule itself. Kind of data set: dynamic light scattering; 20 °C, samples at 5–20 mg/ml in 20 mM Tris pH 8.0, 150 mM KCl, 2 mM DTT; size distribution by volume.
Data set [3] deals with the molecule itself. Put plainly: SEC-MALS; samples at 0.5–20 mg/ml in 20 mM Tris pH 8.0, 150 mM KCl, 2 mM DTT; Superdex 200 Increase 10/300 GL; concentration series and enriched species; self-association: dimer and higher oligomers of dimers. This is another data set of the same source.

Where a chain is given by its changes, count along the chain named. Names may count otherwise. “And” between values parts separate entries of the source, which are not always exact repeats. Equal entries are not always repeated. Where two headings read alike, the source gives them in different places.

B1: SYCE3 9–88 Y11N/L15N (domain or fragment, human, UniProt A1L190 9-88, looked up)
chain: RNNDNMNKMLSDLNKDLEKLLEEMEKISVQATWMAYDMVVMRTNPTLAESMRRLEDAFVNCKEEMEKNWQELLHETKQRL
notes: SYCE3, human, amino acids 9–88 with Y11N and L15N (label of the legend; the text says 'mutation to glutamine'); source: E. coli BL21(DE3), purified (Ni-NTA, amylose, anion exchange, SEC where appropriate); not shown: His6, N-terminal, cleaved; MBP, N-terminal, cleaved
For B1, the “stoichiometry N” value in data set [1] is 2.

B2: SYCE3 9–88 (domain or fragment, human, UniProt A1L190 9-88, looked up)
chain: B1 chain with N3Y, N7L
notes: SYCE3, human, amino acids 9–88 (unstructured N terminus removed); source: E. coli BL21(DE3), purified (Ni-NTA, amylose, anion exchange, SEC where appropriate); not shown: His6, N-terminal, cleaved; MBP, N-terminal, cleaved
With B2, the binding result in data set [2] was “binds”.

B3: SYCE3 1–88 W41A/Y44A (natural protein, human, UniProt A1L190 1-88, looked up)
chain: MDDADPEERNYDNMLKMLSDLNKDLEKLLEEMEKISVQATAMAADMVVMRTNPTLAESMRRLEDAFVNCKEEMEKNWQELLHETKQRL
notes: SYCE3, human, amino acids 1–88 with W41A and Y44A; also called SYCE3 W41A/Y44A; source: E. coli BL21(DE3), purified (Ni-NTA, amylose, anion exchange, SEC where appropriate); not shown: His6, N-terminal, cleaved; MBP, N-terminal, cleaved
In the case of B3, the “stoichiometry N” value in data set [3] is 2 and 4.

B4: Human SYCE3 full-length (amino acids 1–88) (natural protein, UniProt A1L190 1-88, looked up)
chain: B3 chain with A41W, A44Y
notes: SYCE3, human, full length, amino acids 1–88 (protein of 88 amino acids); it assembles further with concentration; Tags removed with TEV protease; also called SYCE3 1–88; WT SYCE3; source: E. coli BL21(DE3), purified (Ni-NTA, amylose, anion exchange, SEC where appropriate); not shown: His6, N-terminal, cleaved; MBP, N-terminal, cleaved
Consider B4, for which the “stoichiometry N” value in data set [1] was 24.

B5: SYCE3 1–88 P53Q (natural protein, human, UniProt A1L190 1-88, looked up)
chain: B3 chain with A41W, A44Y, P53Q
notes: SYCE3, human, amino acids 1–88 with P53Q; also called SYCE3 P53Q; source: E. coli BL21(DE3), purified (Ni-NTA, amylose, anion exchange, SEC where appropriate); not shown: His6, N-terminal, cleaved; MBP, N-terminal, cleaved
B5: the binding result in data set [3] is given as “binds”.

B6: SYCE3 1–88 PPP-loop (natural protein, human, UniProt A1L190 1-88, looked up)
chain: B3 chain with A41W, A44Y, M49G, R50G, T51P, N52P
notes: also called SYCE3 PPP-loop; source: E. coli BL21(DE3), purified (Ni-NTA, amylose, anion exchange, SEC where appropriate); not shown: His6, N-terminal, cleaved; MBP, N-terminal, cleaved
Turning to B6, in data set [3], the “stoichiometry N” value worked out at 2.

B7: MBP-SYCE3 fusion protein (natural protein, human, UniProt A1L190 1-88, looked up)
chain: B3 chain with A41W, A44Y
notes: SYCE3, human; source: E. coli BL21(DE3), purified; not shown: MBP, N-terminal, kept
Take B7: the “stoichiometry N” value in data set [1] was 4 and 6.

B8: SYCE3 1–88 W41E/Y44E (natural protein, human, UniProt A1L190 1-88, looked up)
chain: B3 chain with A41E, A44E
notes: SYCE3, human, amino acids 1–88 with W41E and Y44E; also called SYCE3 W41E/Y44E; source: E. coli BL21(DE3), purified (Ni-NTA, amylose, anion exchange, SEC where appropriate); not shown: His6, N-terminal, cleaved; MBP, N-terminal, cleaved
B8: in data set [3], the “stoichiometry N” value came out at 2.

B9: SYCE3 12–88 L15N (domain or fragment, human, UniProt A1L190 12-88, looked up)
chain: DNMNKMLSDLNKDLEKLLEEMEKISVQATWMAYDMVVMRTNPTLAESMRRLEDAFVNCKEEMEKNWQELLHETKQRL
notes: SYCE3, human, amino acids 12–88 with point mutation L15N; source: E. coli BL21(DE3), purified (Ni-NTA, amylose, anion exchange, SEC where appropriate); not shown: His6, N-terminal, cleaved; MBP, N-terminal, cleaved
In the case of B9, the “stoichiometry N” value in data set [3] worked out at 2.

B10: SYCE3 12–88 (domain or fragment, human, UniProt A1L190 12-88, looked up)
chain: B9 chain with N4L
notes: SYCE3, human, amino acids 12–88 (α1 N-terminal tip removed, structural core kept); source: E. coli BL21(DE3), purified (Ni-NTA, amylose, anion exchange, SEC where appropriate); not shown: His6, N-terminal, cleaved; MBP, N-terminal, cleaved
As for B10, the “stoichiometry N” value in data set [1] worked out at 2.

As usually defined, the stoichiometry N is the number of molecules, sites or subunits per partner or assembly.
